Experimental data: patent publication US6391584B1, “Expression-cloning method for identifying target proteins for eukaryotic tyrosine kinases and novel target proteins” (New York University Medical Center, priority 1991, dated 2002)

Key:
[1] = target: trpE/GAP SH2 fusion protein (GAP residues 171-448) (UniProt P00895); assay: filter binding: 32P-labelled probe on fusion protein spotted on nitrocellulose
[2] = test system: GRB2 phosphorylation in HER14 cells; assay: GRB2 phosphorylation in (32P) orthophosphate-labelled, EGF stimulated HER14 cells; format: cell-based; details: vanadate (200 μM) at 37° C. for 20 min prior to the addition of EGF
Description: Labeling cells with (^32P)-orthophosphate were carried out as previously described (Li et al., Mol. Biol. Cell 2:641-649, 1991). Briefly, confluent HER14 cells starved for 16 hrs in 1% FCS/DMEM were incubated for two hours in Pi-free media, and labeled for two hours in Pi-free media, dialyzed FBS, 1 mCi/ml orthophosphate (carrier free, 314.5-337.5 TBq/mmole, purchased form NEN, Wilmington, Del.) at 37° C. Where appropriate, cells were incubated with vanadate (200 μM) at 37° C. for the last 20 minutes of cell labeling. Cells were then stimulated for two minutes with EGF (250 ng/ml) or PDGF (50 ng/ml), rapidly washed 2 times with ice cold phosphate-buffered saline (PBS), and solubilized immediately in lysis buffer (10 mM Tris-Cl pH 7.6, 50 mM NaCl, […] sodium pyrophosphate, 50 mM sodium fluoride, 100 μM sodium orthovanadate, 5 μM ZnCl2, 1 mM PMSF and 0.5% Triton-X-100). […]
To determine if the failure to detect tyrosine phosphorylated GRB2 was due to the rapid dephosphorylation by a protein tyrosine phosphatase, a potent tyrosine phosphatase inhibitor, vanadate, was tested for its effects upon GRB2 phosphorylation. (^32p) orthophosphate-labelled cells were incubated with or without vanadate at 37° C. for 20 min prior to the addition of EGF, and GRB2 phosphorylation was assessed as described above.

[3] = target: tyrosine phosphorylated wild-type EGF receptor, full length (human) (UniProt P00533); assay: immunoprecipitated autophosphorylated EGFR, anti-PLC-γ blot with 125I-protein A, bands counted
[4] = target: T1, tyrosine phosphorylated EGFR-C (intracellular domain of the EGF receptor, baculovirus expressed) (human, UniProt P00533 669-1210, tyrosine autophosphorylated with MnCl2 and ATP; positions not given); assay: EGFR-C immunoprecipitated with antibody C, anti-trpE immunoblot
T1 construct: domain: intracellular domain; Produced in baculovirus-infected SF9 cells; also called EGFR cytoplasmic domain; phosphorylated kinase
Description: In FIG. 12A, EGFR-C (0.5 μg) was immunoprecipitated with antibody C and washed. […] The immunoprecipitates were separated on a 10% SDS-gel, transferred to nitrocellulose and immunoblotting was performed with anti-trpE. […] Phosphorylated or non-phosphorylated EGFR-C (0.5 μg) was then added and allowed to bind as above. After washing, samples were separated on a 10% gel, transferred to nitrocellulose and probed with antibody C. The two samples on the right represent 0.5 μg of phosphorylated and non-phosphorylated kinase loaded directly onto the gel (exposure time: 2 h).

[5] = target: T2, EGFR-C (Homo sapiens, UniProt P00533); assay: Binding of trpE/GAP SH2 fusion protein to baculovirus expressed EGFR-C (immunoprecipitation / immunoblot); details: phosphorylated vs non-phosphorylated EGFR-C, FIG. 12A
T2 construct: EGFR-C represents a deletion mutant containing the cytoplasmic domain of the EGF receptor produced by baculovirus-infected SF9 cells; made in house; host or cells: baculovirus-infected SF9 insect cells
Description: FIGS. 12A and 12B are representations of a gel pattern showing binding of EGFR-C to trpE proteins. In FIG. 12A, EGFR-C (0.5 μg) was immunoprecipitated with antibody C and washed. MnCl2 alone or MnCl2 and ATP were then added to facilitate autophosphorylation of TrpE or trpE/GAP SH2 (approximately 2 μg). The immunoprecipitates were separated on a 10% SDS-gel, transferred to nitrocellulose and immunoblotting was performed with anti-trpE. For comparison, about 0.1 μg of trpE or trpE/GAP SH2 lysate was loaded directly on to the gel (right panel of 12A). In FIG. 12B, trpE or trpE/GAP SH2 was immunoprecipitated with anti-trpE antibodies and washed. Phosphorylated or non-phosphorylated EGFR-C (0.5 μg) was then added and allowed to bind as above. After washing, samples were separated on a 10% gel, transferred to nitrocellulose and probed with antibody C. The two samples on the right represent 0.5 μg of phosphorylated and non-phosphorylated kinase loaded directly onto the gel (exposure time: 2 h). The preparation of trpE fusion proteins containing the GAP SH2 domain (GAP residues 171-448, 10 FIG. 9B) has been described by Moran, M. F. et al., Proc. Natl. Acad. Sci. USA 87: 8622-8626 (1990). Bacterial lysates containing trpE/GAP SH2 fusion proteins were prepared by resuspending 1 g of bacteria in 3 ml of 50 mM Tris pH 7.5, 0.5 mm EDTA, 0.1 mm PMSF. […]

“tyrosine phosphorylated C-terminal CNBr fragment of the EGF receptor (EGFR 984/1186) (from UniProt P00533 1008-1210)” was tested, and the amount of spotted fusion protein at which binding was still detected [1] was less than 5 ng.

For [O]=[V]([O-])([O-])[O-] [Vanadate, vanadate], the “effect on GRB2 phosphorylation” value [2] was “did not result in detectable GRB2 phosphorylation”.

“PLC-γ (phosphatidylinositol specific phospholipase C-γ), non-phosphorylated, from 3TP1 cell lysate (enzyme)” showed a percent remaining bound after three washes with HNTG [3] of 50%.

B1: trpE protein alone (other, UniProt P00895 1-323, looked up)
chain: MQTQKPTLELLTCEGAYRDNPTALFHQLCGDRPATLLLESADIDSKDDLKSLLLVDSALRITALGDTVTIQALSGNGEALLALLDNALPAGVESEQSPNCRVLRFPPVSPLLDEDARLCSLSVFDAFRLLQNLLNVPKEEREAMFFGGLFSYDLVAGFEDLPQLSAENNCPDFCFYLAETLMVIDHQKKSTRIQASLFAPNEEEKQRLTARLNELRQQLTEAAPPLPVVSVPHMRCECNQSDEEFGGVVRLLQKAIRAGEIFQVVPSRRFSLPCPSPLAAYYVLKKSNPSPYMFFMQDNDFTLFGASPESSLKYDATSRQIEI
notes: Control for the trpE/GAP SH2 fusion; also called bacterial protein alone
B1: no binding [4].

B2: trpe protein: bacterial trpE protein alone, used as control for the fusion protein (protein)
chain: MQTQKPTLELLTCEGAYRDNPTALFHQLCGDRPATLLLESADIDSKDDLKSLLLVDSALRITALGDTVTIQALSGNGEALLALLDNALPAGVESEQSPNCRVLRFPPVSPLLDEDARLCSLSVFDAFRLLQNLLNVPKEEREAMFFGGLFSYDLVAGFEDLPQLSAENNCPDFCFYLAETLMVIDHQKKSTRIQASLFAPNEEEKQRLTARLNELRQQLTEAAPPLPVVSVPHMRCECNQSDEEFGGVVRLLQKAIRAGEIFQVVPSRRFSLPCPSPLAAYYVLKKSNPSPYMFFMQDNDFTLFGASPESSLKYDATSRQIEI
B2 was tested, and the “binding to EGFR-C” value [5] was “did not bind”.

B3: trpE/GAP SH2 fusion protein: bacterially expressed trpE fusion protein containing the GAP SH2 domain (GAP residues 171-448) (protein)
chain: MQTQKPTLELLTCEGAYRDNPTALFHQLCGDRPATLLLESADIDSKDDLKSLLLVDSALRITALGDTVTIQALSGNGEALLALLDNALPAGVESEQSPNCRVLRFPPVSPLLDEDARLCSLSVFDAFRLLQNLLNVPKEEREAMFFGGLFSYDLVAGFEDLPQLSAENNCPDFCFYLAETLMVIDHQKKSTRIQASLFAPNEEEKQRLTARLNELRQQLTEAAPPLPVVSVPHMRCECNQSDEEFGGVVRLLQKAIRAGEIFQVVPSRRFSLPCPSPLAAYYVLKKSNPSPYMFFMQDNDFTLFGASPESSLKYDATSRQIEIIPLTAPPTNQWYHGKLDRTIAEERLRQAGKSGSYLIRESDRRPGSFVLSFLSQMNVVNHFRIIAMCGDYYIGGRRFSSLSDLIGYYSHVSCLLKGEKLLYPVAPPEPVEDRRRVRAILPYTKVPDTDEISFLKGDMFIVHNELEDGWMWVTNLRTDEQGLIVEDLVEEVGREEDPHEGKIWFHGKISKQEAYNLLMTVGQVCSFLVRPSDNTPGDYSLYFRTNENIQRFKICPTPNNQFMMGGRYYNSIGDIIDHYRKEQIVEGYYLKEPVPMQDQEQ
B3 was tested, and the “binding to EGFR-C” value [5] was “bound only to the tyrosine phosphorylated EGFR-C”.
